From PMC3720604 come the findings set out here.

The target in the assay is endogenous CK2β (human (endogenous in HeLa)) (UniProt P67870). Description: co-IP; lysates (200 ug) of HeLa cells transfected with CK2α-HA or CK2α′-HA; consecutive rounds of immunoprecipitation with anti-CK2β sera and protein A sepharose, or mock control; supernatant and immunoprecipitate blotted for HA and CK2β; NP-40 alternative lysis buffer, 150 mM NaCl, 50 mM Tris pH 7.5.
UniProt P67870, sequence (P67870 whole entry): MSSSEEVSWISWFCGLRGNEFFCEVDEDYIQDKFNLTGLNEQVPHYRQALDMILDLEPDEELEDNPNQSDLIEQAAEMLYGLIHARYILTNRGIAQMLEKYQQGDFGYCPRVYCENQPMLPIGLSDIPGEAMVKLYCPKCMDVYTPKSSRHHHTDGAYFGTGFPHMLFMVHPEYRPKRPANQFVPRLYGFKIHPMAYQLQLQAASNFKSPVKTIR

CK2α′-HA, sequence (P19784 whole entry): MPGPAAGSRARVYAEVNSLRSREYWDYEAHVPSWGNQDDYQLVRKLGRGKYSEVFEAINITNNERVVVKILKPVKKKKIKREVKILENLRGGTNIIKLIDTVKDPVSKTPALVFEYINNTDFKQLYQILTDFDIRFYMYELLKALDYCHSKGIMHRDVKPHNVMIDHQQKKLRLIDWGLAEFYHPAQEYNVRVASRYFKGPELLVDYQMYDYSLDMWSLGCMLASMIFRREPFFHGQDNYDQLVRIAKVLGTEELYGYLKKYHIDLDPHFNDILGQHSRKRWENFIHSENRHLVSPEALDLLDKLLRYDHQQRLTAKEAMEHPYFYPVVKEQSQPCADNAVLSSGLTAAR

As for “CK2α′-HA (from UniProt P19784 1-350) (enzyme)”, the percent depleted from the lysate by CK2β immunoprecipitation was greater than 90%.
